How the values were obtained:
[1] = target: amyloid beta peptide Aβ 1–42 (fibrils)
[2] = target: amyloid beta peptide Aβ 3–28 (fibrils)

| decrease of SANS scattering intensity at q < 0.01 between the beginning (300 s) and the end of the kinetic experiment (fibril disaggregation; 37 °C, deuterated HCC 1 mg/mL) [1] | decrease of SANS scattering intensity at q < 0.01 between the beginning (300 s) and the end of the kinetic experiment (fibril disaggregation; 37 °C, deuterated HCC 1 mg/mL, 1–10 h) [2] | Molecule |
| --- | --- | --- |
| 4% | – | human cystatin C (wild type) (from UniProt P01034 27-146) (natural protein) |
| – | > 70% | human cystatin C (wild type) (natural protein, 2H-labelled (deuterated) in D-HCC; protonated in H-HCC) SSPGKPPRLVGGPMDASVEEEGVRRALDFAVGEYNKASNDMYHSRALQVVRARKQIVAGVNYFLDVELGRTTCTKTQPNLDNCPFHDQPHLKRKAFCSFQIYAVPWQGTMTLSKSTCQDA |

Source: article PMC10682421
